In PMC5543122, “Structural basis of Notch O-glucosylation and O–xylosylation by mammalian protein–O-glucosyltransferase 1 (POGLUT1)” (Nature Communications, 2017):

Tests used:
[1] = molecular target: human Protein O-glucosyltransferase 1 (POGLUT1), residues 29-385 (human) (UniProt Q8NBL1)
[2] = molecular target: Drosophila Rumi, residues 39-406 (Drosophila) (UniProt Q8T045)
Sequence of UniProt Q8T045 (Q8T045 39-406): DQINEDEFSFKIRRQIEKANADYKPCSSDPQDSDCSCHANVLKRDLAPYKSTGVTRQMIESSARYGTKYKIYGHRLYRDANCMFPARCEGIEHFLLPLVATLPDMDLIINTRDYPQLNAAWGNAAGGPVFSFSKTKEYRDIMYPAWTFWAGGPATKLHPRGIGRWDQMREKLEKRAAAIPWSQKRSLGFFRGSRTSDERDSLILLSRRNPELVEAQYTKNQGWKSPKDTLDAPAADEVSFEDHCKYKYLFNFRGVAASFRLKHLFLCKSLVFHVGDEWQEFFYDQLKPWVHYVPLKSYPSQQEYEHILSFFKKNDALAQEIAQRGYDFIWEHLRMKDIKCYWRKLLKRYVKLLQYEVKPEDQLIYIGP

Sequence of UniProt Q8NBL1 (Q8NBL1 29-385): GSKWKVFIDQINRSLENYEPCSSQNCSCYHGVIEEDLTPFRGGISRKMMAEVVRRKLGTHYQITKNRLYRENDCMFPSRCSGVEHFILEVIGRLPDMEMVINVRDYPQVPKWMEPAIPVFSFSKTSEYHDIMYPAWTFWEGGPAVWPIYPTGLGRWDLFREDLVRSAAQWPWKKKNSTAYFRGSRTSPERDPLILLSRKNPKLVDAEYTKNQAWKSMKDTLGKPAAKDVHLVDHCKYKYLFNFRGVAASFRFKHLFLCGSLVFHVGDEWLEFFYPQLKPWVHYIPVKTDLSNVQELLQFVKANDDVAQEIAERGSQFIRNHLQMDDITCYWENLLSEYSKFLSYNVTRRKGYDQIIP

Substance	K M of the EGF-like domain (MBP fusion) for glucosylation, 2.5 mM UDP-glucose, coupled spectrophotometric assay, 37 °C [1] [µM]	K M of the EGF-like domain (MBP fusion) for glucosylation, 2.5 mM UDP-glucose, coupled spectrophotometric assay, 37 °C [2] [µM]
human Notch1 EGF-like domain 12 with a 4-residue C2C3 loop, MBP fusion (from UniProt P46531 452-488) (domain or fragment)	155	160
human Notch1 EGF-like domain 12 with a 6-residue C2C3 loop, MBP fusion (from UniProt P46531 452-488) (domain or fragment)	1000	1000
human Notch1 EGF-like domain 12 with a 7-residue C2C3 loop, MBP fusion (from UniProt P46531 452-488) (domain or fragment)	1000	1000
